This note sets out measurements from PMC10764278.

For the test, the target named is recombinant human tau(297–391) (human) (UniProt P10636). In words: co-sedimentation; pelletable tau: whole assembly reaction centrifuged at 400,000g, 20 °C, 15 min, pellet and supernatant quantified by SDS-PAGE; 720 min (Fig. 2b, PHF reaction).

As for “recombinant human tau(297–391) (from UniProt P10636-8 297-391) (domain or fragment)”, the percent of tau pelletable lay in the range of 80 to 90%.
